Measurements reported in the supplement of paper PMC9112550, “Optimization of the antimicrobial peptide Bac7 by deep mutational scanning” (BMC Biology, 2022).

System: Escherichia coli TOP10
Experiment: shrunken log2 fold change of peptide-encoding DNA abundance (4.5 h post-induction vs induction); higher = less antimicrobial activity (less host growth inhibition)
Conditions: time post-induction: 4.5 h; library: site-saturation at positions 5, 18, 19, 20
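Note: peptides expressed intracellularly from a pBAD plasmid library in pooled LB shake-flask culture, induced with 0.3% L-arabinose, DNA abundance read by NGS, three biological replicates, DESeq2 with apeglm shrinkage.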

Sequence | shrunken log2 fold change
RRIRLRPPRLPRPRPRPNILPRP | -0.634
RRIRVRPPRLPRPRPRPMEDPRP | 0.0593
RRIRTRPPRLPRPRPRPMIGPRP | -0.107
RRIRCRPPRLPRPRPRPGFCPRP | 0.124
RRIRTRPPRLPRPRPRPHHNPRP | -0.795
RRIRDRPPRLPRPRPRPMGEPRP | -6.53e-05
RRIRYRPPRLPRPRPRPDVWPRP | -0.194
RRIRLRPPRLPRPRPRPEMFPRP | -0.00904
RRIRVRPPRLPRPRPRPCLYPRP | -0.0189
RRIRQRPPRLPRPRPRPDPDPRP | -0.00136
RRIRKRPPRLPRPRPRPCCSPRP | -0.189
RRIRYRPPRLPRPRPRPHIPPRP | -0.452
RRIRDRPPRLPRPRPRPKACPRP | 0.024
RRIRRRPPRLPRPRPRPAVEPRP | -0.0125
RRIRGRPPRLPRPRPRPIICPRP | 0.026
RRIRNRPPRLPRPRPRPVCNPRP | -0.222
RRIRTRPPRLPRPRPRPYILPRP | -0.0244
RRIRWRPPRLPRPRPRPYREPRP | -0.773
RRIRNRPPRLPRPRPRPWSCPRP | -0.42
RRIRHRPPRLPRPRPRPAMPPRP | -0.0758
RRIRPRPPRLPRPRPRPHHRPRP | -0.118
RRIRHRPPRLPRPRPRPCVEPRP | 0.197
RRIRLRPPRLPRPRPRPWQPPRP | -0.0454
RRIRRRPPRLPRPRPRPQDQPRP | 0.168
RRIRTRPPRLPRPRPRPVNGPRP | 0.0311

Sequence | shrunken log2 fold change
RRIRYRPPRLPRPRPRPYMAPRP | -1.71
RRIRSRPPRLPRPRPRPARNPRP | 0.611
RRIRPRPPRLPRPRPRPHEVPRP | -0.0664
RRIRVRPPRLPRPRPRPFYEPRP | -0.453
RRIRSRPPRLPRPRPRPGKRPRP | -0.0142
RRIRHRPPRLPRPRPRPHFYPRP | -0.139
RRIRIRPPRLPRPRPRPGGPPRP | 0.0365
RRIRFRPPRLPRPRPRPTCNPRP | -0.178
RRIRERPPRLPRPRPRPNWQPRP | 0.103
RRIRARPPRLPRPRPRPGFRPRP | 0.555
RRIRCRPPRLPRPRPRPAPGPRP | 0.75
RRIRTRPPRLPRPRPRPVCAPRP | 0.266
RRIRTRPPRLPRPRPRPHVCPRP | -0.04
RRIRARPPRLPRPRPRPQAFPRP | -0.323
RRIRSRPPRLPRPRPRPHEEPRP | 0.0919
RRIRWRPPRLPRPRPRPEQAPRP | -0.0201
RRIRTRPPRLPRPRPRPECQPRP | 0.0443
RRIRDRPPRLPRPRPRPWRPPRP | 0.0967
RRIRFRPPRLPRPRPRPAINPRP | -0.239
RRIRFRPPRLPRPRPRPIEIPRP | -0.143
RRIRRRPPRLPRPRPRPSWYPRP | 0.363
RRIRLRPPRLPRPRPRPATGPRP | 0.13
RRIRNRPPRLPRPRPRPRPYPRP | -0.25
RRIRYRPPRLPRPRPRPQYVPRP | -0.0294
RRIRYRPPRLPRPRPRPEMKPRP | 0.206
